± gives the standard deviation of the averaged measurements.
B1: library; a variant is named by its letters at N, in order (parent)
chain: GCUGUCACCGGUGCUUGGUACGUUAUAUUCAGCCGGUCUGAUGAGUCUNNNNNNAGACGAAACAGC

Tests used:
[1] = variants of: B1; test: normalized RNA/DNA level without ligand (relative to sTRSVctl = 100) (log10 (% of sTRSVctl)); HEK293T overexpressing SLC46A1; higher = less ribozyme self-cleavage, higher mRNA level; conditions: without (6R,S)-folinic acid; ligand present: no
Outline: (§1)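 Ribozyme switch library plasmids with mCherry reporters (eGFP in certain ligand experiments) went into HEK293T cells at 4 µg per 6-well well. Where ligand was used, it was applied 1 h before transfection, and total RNA was extracted with EDTA 72 h later for reverse transcription, amplification, barcoding and sequencing. RNA level is the RNA-to-DNA read ratio normalized to a spiked-in non-cleaving sequence or to the leading sequences, then scaled and log-transformed. Scaling was ×100 with log10, the leading set comprised 25 sequences, and the cutoff was ≥100 DNA reads.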

[2] = variants of: B1; test: normalized RNA/DNA level with ligand (relative to sTRSVctl = 100) (log10 (% of sTRSVctl)); HEK293T overexpressing SLC46A1; ligand concentration (+) RNA-Seq: 6 mM; higher = less ribozyme self-cleavage, higher mRNA level; conditions: with (6R,S)-folinic acid; ligand present: yes
Outline: as §1

Row | Variant | normalized RNA/DNA level without ligand (log10) [1] | normalized RNA/DNA level with ligand (log10) [2]
1 | CUUCGC | 2.067 ± 0.018 | 2.072 ± 0.018
2 | GGAAGU | 1.978 ± 0.0031 | 2.01 ± 0.032
3 | CAGCGC | 2.046 ± 0.016 | 2.01 ± 0.039
4 | CGUUAG | 2.009 ± 0.0098 | 2.031 ± 0.006
5 | GCGUAU | 2.03 ± 0.026 | 2.06 ± 0.022
6 | AUUUAG | 1.949 ± 0.013 | 2.01 ± 0.026
7 | GGGUCC | 2.05 ± 0.022 | 2.06 ± 0.04
8 | CACCUC | 2.02 ± 0.021 | 1.99 ± 0.027
9 | UCCUGU | 1.999 ± 0.018 | 2.05 ± 0.043
10 | AGGAGC | 1.99 ± 0.016 | 2.01 ± 0.04
11 | CAACCA | 2.032 ± 0.015 | 2.019 ± 0.013
12 | AAGCUC | 2.055 ± 0.019 | 2.054 ± 0.014
13 | GGGGCU | 2.079 ± 0.017 | 2.055 ± 0.0086
14 | UCCUUA | 2.015 ± 0.013 | 2.05 ± 0.0049
15 | GCGAUA | 1.999 ± 0.0087 | 2 ± 0.011
16 | UUCUAC | 2.03 ± 0.029 | 1.98 ± 0.061
17 | CCCGAC | 2.043 ± 0.016 | 2.05 ± 0.033
18 | GGCUGA | 2.094 ± 0.014 | 2.08 ± 0.052
19 | CGUAGA | 1.9919 ± 0.00011 | 1.99 ± 0.043

Row | Variant | normalized RNA/DNA level without ligand (log10) [1] | normalized RNA/DNA level with ligand (log10) [2]
20 | CCAGAC | 1.99 ± 0.023 | 1.98 ± 0.051
21 | AUUUGU | 1.945 ± 0.002 | 2.02 ± 0.042
22 | CGCGUG | 1.963 ± 0.0059 | 2 ± 0.027
23 | AUUCAC | 2.04 ± 0.0098 | 1.994 ± 0.019
24 | ACGAUG | 1.925 ± 0.016 | 2.03 ± 0.031
25 | CUUUGU | 1.986 ± 0.008 | 1.99 ± 0.022
26 | CGCAAU | 1.9357 ± 0.0015 | 1.968 ± 0.014
27 | GACACG | 1.971 ± 0.019 | 1.98 ± 0.034
28 | GUAACA | 2.016 ± 0.0052 | 1.98 ± 0.042
29 | GAUCUA | 2.03 ± 0.024 | 2.027 ± 0.02
30 | AGACCG | 2.05 ± 0.026 | 2.04 ± 0.029
31 | GACUCU | 2.033 ± 0.0069 | 2 ± 0.066
32 | GACAUG | 1.925 ± 0.0021 | 1.994 ± 0.009
33 | GAUGGG | 1.941 ± 0.0096 | 2.043 ± 0.019
34 | GGUCGA | 2.0344 ± 0.00085 | 2.01 ± 0.026
35 | UCUUUG | 1.81 ± 0.031 | 1.952 ± 0.019
36 | ACUCUU | 2.0142 ± 0.0018 | 2.01 ± 0.046
37 | GCUAUU | 2.054 ± 0.013 | 2.04 ± 0.041
38 | UAUAUC | 2.027 ± 0.0026 | 2.01 ± 0.036

Row | Variant | normalized RNA/DNA level without ligand (log10) [1] | normalized RNA/DNA level with ligand (log10) [2]
39 | AUAUCA | 2.0081 ± 0.00069 | 2.04 ± 0.036
40 | GUCGCU | 2.048 ± 0.0053 | 2.002 ± 0.02
41 | UGUGGC | 1.97 ± 0.022 | 2.019 ± 0.0063
42 | AUACCG | 2.013 ± 0.013 | 2.04 ± 0.042
43 | CCCAGC | 2.06 ± 0.035 | 2.06 ± 0.068
44 | CCCAGU | 2.05 ± 0.038 | 2.034 ± 0.02
45 | AUGCCA | 2.011 ± 0.0049 | 2.011 ± 0.01
46 | CUGCGU | 2.059 ± 0.011 | 2.06 ± 0.039
47 | AUCCAG | 1.981 ± 0.0027 | 2 ± 0.031
48 | CUCCAC | 2.0214 ± 0.0016 | 2.01 ± 0.046
49 | AUCAAA | 2.002 ± 0.0041 | 2 ± 0.04
50 | ACUCCC | 2.054 ± 0.0096 | 2.02 ± 0.048
51 | AGUGUU | 2.026 ± 0.011 | 2.04 ± 0.027
52 | CGUUUC | 2.06 ± 0.047 | 2.06 ± 0.06
53 | AUGUUG | 1.889 ± 0.01 | 2.017 ± 0.019
54 | CUCAUG | 2.003 ± 0.019 | 1.98 ± 0.023
55 | AUUGGG | 1.7701 ± 0.00019 | 1.99 ± 0.033
56 | GACGUC | 2.065 ± 0.0072 | 2.02 ± 0.054
57 | GCGACU | 2.051 ± 0.0076 | 2.06 ± 0.04

Reference: the supplement of paper PMC6757056
